In the assay the target is T1, ELucC-BMAL1 (mouse, UniProt Q9WTL8-2 1-625).
T1 construct: full-length mouse BMAL1 cDNA ligated downstream of ELucC; also called ELucC-BMAL1-WT (full length); ELucC-mBMAL1; source: Cos7 cells, transfected, in living cells; not shown: ELucC (C-terminal fragment of Emerald luciferase), N-terminal, kept
Briefly: split reporter (BiFC, NanoBiT); Split Luc complementation in living Cos7 cells transfected with ELucN-CK2β and ELucC-BMAL1 (WT or mutant) together with pcDNA, Myc-HA-CRY1, Myc-CRY2 or FLAG-CRY1 (WT or Cd1-4); real-time bioluminescence, averaged peak values. The following applies: partners not purified.

T1 sequence (Q9WTL8 other isoform, or with tags, fused parts or gaps): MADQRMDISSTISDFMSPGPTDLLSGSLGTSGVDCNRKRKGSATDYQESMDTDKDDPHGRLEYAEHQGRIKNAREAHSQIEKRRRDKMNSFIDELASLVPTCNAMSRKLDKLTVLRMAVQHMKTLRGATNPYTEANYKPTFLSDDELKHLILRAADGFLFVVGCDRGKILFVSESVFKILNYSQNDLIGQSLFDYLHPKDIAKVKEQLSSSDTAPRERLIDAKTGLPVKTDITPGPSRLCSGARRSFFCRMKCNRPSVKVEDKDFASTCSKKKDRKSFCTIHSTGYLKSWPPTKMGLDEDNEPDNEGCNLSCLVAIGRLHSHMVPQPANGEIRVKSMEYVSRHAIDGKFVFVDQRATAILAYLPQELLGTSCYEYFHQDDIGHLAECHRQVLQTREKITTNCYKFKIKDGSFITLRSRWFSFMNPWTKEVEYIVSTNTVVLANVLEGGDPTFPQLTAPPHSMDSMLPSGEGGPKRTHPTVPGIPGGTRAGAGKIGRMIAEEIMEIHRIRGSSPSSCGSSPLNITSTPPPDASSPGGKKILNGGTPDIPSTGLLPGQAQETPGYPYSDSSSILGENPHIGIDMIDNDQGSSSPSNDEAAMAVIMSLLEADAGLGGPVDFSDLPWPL

B1: ELucN-CK2β (natural protein)
chain: not shown
notes: full-length human CK2β cDNA ligated downstream of ELucN; Vector backbone pcDNA4/V5-His (B) or pcDNA3.1; also called CMV-ELucN-CK2β; source: Cos7 or U-2OS cells, transfected, in living cells; not shown: ELucN (N-terminal fragment of Emerald luciferase), N-terminal, kept
Take B1: the “fold increase of Split Luc bioluminescence in the presence of CRY proteins” value was ~4 fold and the “fold increase of Split Luc bioluminescence on over-expression of Myc-tagged CRY1 or CRY2” value was ~6 fold.

Source of the values: article PMC4642984, “CRY Drives Cyclic CK2-Mediated BMAL1 Phosphorylation to Control the Mammalian Circadian Clock” (PLoS Biology, 2015).
